Patent publication US20200370136

Legend:
[1] = test system: T7 RNA polymerase, SNAPf fusion (T7 RNAP-SNAPf), freely diffusing (bacteriophage T7?); conditions: Michaelis Km of transcription; 10 mM MgCl2, 37 C; Vmax 62 nM/s
[2] = test system: T7 RNA polymerase, SNAPf fusion, anchored on DNA origami tile (T7-chip) (bacteriophage T7?); conditions: apparent Michaelis Km of transcription for externally diffusing gene; 10 mM MgCl2, 37 C; Vmax 34 nM/s

“sfGFP gene with T7 promoter (942 nt transcript)” was tested. Which K half [1] did it give?
Its K half is 5.6 nM.

And the K half [2]?
Its K half is 1010 nM.
